# Patent US20180280504A1, “GLYCAN-INTERACTING COMPOUNDS AND METHODS OF USE” (SIAMAB THERAPEUTICS, INC., priority 2014, published 2018)
# Numbering of substitutions follows the chain as printed. In names and notes the source's numbering stands. Like-named read-outs stand apart in the source and are kept apart here.
# B1: 2D4: anti-STn mouse monoclonal, IgG2b κ, from mouse #4407; VH SEQ ID NO: 10, VL SEQ ID NO: 11 (antibody, V domains shown)
# VH: QVQLQESGPGLVAPSQSLSITCTVSGFSLISYGVNWVRQPPGKGLEWLGVIWGDGSTNYQSALISRLIISKDNSKSQVFLKLNSLQTDDTATYYCTKGFAYWGQGTLVTVSA
# VL: QIVLTQSPAIMSASPGEKVTMTCSASSSVSYMHWFQQKSGTSPKRWIYDTSKLASGVPARFSGSGSGTSYSLTISSMEAEDAATYYCQQWSSNLLTFGAGTKLELK
# B2: 7G9: anti-STn mouse monoclonal, IgG2b κ, from mouse #4407; VH SEQ ID NO: 12, VL SEQ ID NO: 9 (antibody, V domains shown)
# VH: B1 VH with Q5K, S17N, I30T, Q60H, D72E, D88N, A100V
# VL: B1 VL with F35Y, Y48F
# B3: S3F: 3F1 variable domains combined with IgG2a constant domains; heavy chain SEQ ID NO: 63, light chain SEQ ID NO: 64 (antibody)
# heavy: QVQLQQSDAELVKPGASVKISCKASGYTFTDHAIHWVKQKPEQGLDWIGYISPGNGDIKYNEKFKDKVTLTADKSSSTACMHLNSLTSEDSAVYFCKRSLLALDYWGQGTTLTVSSAKTTAPSVYPLAPVCGDTTGSSVTLGCLVKGYFPEPVTLTWNSGSLSSGVHTFPAVLQSDLYTLSSSVTVTSSTWPSQSITCNVAHPASSTKVDKKIEPRGPTIKPCPPCKCPAPNLLGGPSVFIFPPKIKDVLMISLSPIVTCVVVDVSEDDPDVQISWFVNNVEVHTAQTQTHREDYNSTLRVVSALPIQHQDWMSGKEFKCKVNNKDLPAPIERTISKPKGSVRAPQVYVLPPPEEEMTKKQVTLTCMVTDFMPEDIYVEWTNNGKTELNYKNTEPVLDSDGSYFMYSKLRVEKKNWVERNSYSCSVVHEGLHNHHTTKSFSRTPGK
# light: DIVMTQSHKFMSTSVGDRVSITCKASQDVGTNIAWYQQKPGRSPKVLIYSASTRHTGVPDRFTGSGSGTDFTLTISNVQSEDLTDYFCQQYSSFPLTFGVGTKLELKRADAAPTVSIFPPSSEQLTSGGASVVCFLNNFYPKDINVKWKIDGSERQNGVLNSWTDQDSKDSTYSMSSTLTLTKDEYERHNSYTCEATHKTSTSPIVKSFNRNEC
# Experiments:
# [1] = tested on: MDA-MB-231-STn+ cells; test: Cell viability assay with secondary antibody-drug conjugate (2° ADC), STn+ cells; format: cell-based, human; conditions: for IC50: MDA-MB-231-STn+ cells
# Experimental: Cell viability assays are performed to screen anti-STn antibodies of the present invention in the presence and absence of secondary antibody-drug conjugates (2° ADCs). The purpose of the screen is to identify the ability of each anti-STn antibody to inhibit cell growth. Antibodies with potent cell growth inhibition are used to design direct antibody-drug conjugates (ADCs). Using such secondary antibody-drug conjugates (2° ADCs) in cell-based cytotoxic assays can quickly pre-screen many ADC candidates against tumor cells. Based on the assay, a naked antibody candidate is directly added to cells in the presence of a 2° ADC. Internalization of the mAb/2° ADC complex into cells that express a high density of the targeted antigen can achieve a dose-dependent drug release within the cells, causing a cytotoxic effect to kill the cells (e.g., tumor cells), while cells expressing a low density of the targeted antigen are not affected (e.g., normal cells).
# To perform cell viability assays, cell lines described in the present application (MDA-MB-231 parental, MDA-MB-231-STn+, and OV-90) are prepared and cultured for the assays. The cell culture is optimized for cell density by plating different densities of cells (e.g., 2,000, 4,000 and 7,500 per well) on a 96-well plate and observing the cell growth for 96 hours. The plating condition in which cells reach around 90% confluence at the end of the 96 hours is identified and the optimal cell number is then used in the final viability assay.
# Duplicate or triplicate cell plates for each cell line are used for testing each antibody candidate.
# For cell viability assays, data points are collected for each antibody candidate with duplicates for each data point. Each antibody candidate is diluted in serial concentrations from 0.3 pM to 20 nM.
# Alternatively, data points are collected for each antibody candidate with triplicates for each data point. Each antibody candidate is diluted in serial concentrations from 1 pM to 20 nM.
# Cell viabilities are measured by Cell-Titer Glo luminescence based assays.
# Three anti-STn monoclonal antibodies (anti-STn antibodies S3F, 7G9 and 2D4) and an anti-EGFR monoclonal antibody LA22 were tested for internalization. Six plates of cell culture, two per cell line (MDA-MB-231 parental, MDA-MB-231-STn+, and OV-90), were used to assay the antibody candidates. Each plate can be used to assay the four antibody candidates simultaneously. A secondary anti-IgG antibody conjugated to MMAF (monomethyl auristatin phenylalanine), a non-permeable Aurastatin analog, was used as the 2° ADC. Cell viability was then measured using CellTitreGlo Luminescent Cell Viability Assay (Promega, Madison, Wis.).
# [2] = tested on: MDA-MB-231 cells expressing cell-surface Neu5Ac-STn; test: Flow cytometry assay to quantify antibody internalization; format: cell-based, human; conditions: for % cells exhibiting 488 fluorescence: 4° C.; for internalization (conclusion): Neu5Ac-STn-overexpressing MDA-MB-231 cells
# Experimental: For analysis, stably transfected variants of MDA-MB-231 cells (clone TAH3.P10) that express high levels of cell surface-bound Neu5Ac-STn are harvested using 10 mM EDTA and washed with PBS comprising 1% BSA before pelleting by light centrifugation. Cell numbers and viability are determined by trypan blue dye exclusion analysis and cell concentrations are adjusted to 5×10^6 cells/ml in PBS with 1% BSA. 50 μl of cells are added to each well of an assay plate. Cells are combined with 50 μl solutions of antibody or fluorescently-labeled antibody and incubated for 1 hour at 4° C. Following this incubation period, cells are washed with PBS to remove unbound antibody and aliquots are removed for incubation for various times (15, 30, 60 minutes) at 37° C. to allow bound antibody to internalize at a physiologically relevant temperature. After each incubation, cell surface-bound antibody is removed by treating cells with acidic medium (150 mM NaCl, pH=2.5) Cells treated with unlabeled antibody are washed with PBS and fixed with paraformaldehyde fixation buffer (PFA) containing 3% paraformaldehyde and 2% sucrose in PBS for 15 minutes at room temperature. These cells are rinsed again in PBS and treated with blocking buffer made up of PBS with 1% bovine serum albumin (BSA). Cells are incubated for 30 min at room temperature, rinsed in PBS and treated with secondary antibody (allophycocyanin-labeled goat-anti-mouse IgG) for 2 hours at room temperature. All cells are then washed with PBS and subjected to flow cytometry analysis wherein 10,000 events are recorded for each sample. Residual fluorescent signal in acid-treated samples is further quenched via treatment with trypan blue dye.
# Flow cytometry analysis was carried out in order to quantify the extent of antibody internalization according to the procedure of Example 15. MDA-MB-231 cells expressing high levels of cell-surface bound Neu5Ac-STn were harvested using StemPro Accutase buffer and washed with PBS comprising 5% FBS before pelleting by light centrifugation. Cell numbers and viability were determined by trypan blue dye exclusion analysis and cell concentrations were adjusted to 5×10^6 cells/ml in PBS with 5% FBS. 50 μl of cells were added to each well of an assay plate. Cells were then combined with 50 μl solutions of antibody S3F or ALEXA FLUOR® 488-conjugated antibodies S3F, 7G9 or GB26.6 and incubated for 1 hour at 4° C. Following this incubation period, cells were washed with PBS to remove unbound antibody and aliquots were removed for incubation for various times (15, 30, 60 minutes) at 37° C. After each incubation, cells were treated with acidic medium (150 mM NaCl, pH=2.5) to remove surface-bound antibody. Cells treated with unlabeled S3F were washed with PBS 5% FCS. Secondary antibody (allophycocyanin-labeled goat-anti-mouse IgG) was added to the cells and incubated for 30 min at 4° C., rinsed in PBS 5% FBS and kept on ice until flow cytometry analysis. All cells were then washed with PBS and subjected to flow cytometry analysis wherein 10,000 events were recorded for each sample.
# Culturing and harvesting of MDA-STn+ cells was performed according to Example 14. Staining of MDA-STn+ cells with S3F antibody included either unlabeled S3F or S3F directly labeled with ALEXA FLUOR® 488 (Thermo Fisher Scientific, Pittsburgh, Pa.). Stained control vials were kept at 4° C. until analysis was performed. Controls included a GB26.6 antibody negative control for STn binding, unstained control, and unlabeled S3F antibody followed by an APC secondary antibody. Vials for each experimental time point (15, 30 and 60 min) were incubated in complete media at 37° C. 5% CO2 to allow for antibody internalization. Immediately prior to analysis by flow cytometry, non-internalized antibody was stripped from the cell surface of experimental samples using 150 mM NaCl pH 2.5 (acidic buffer).
# [3] = with 2° ADC Fab αMFc-CL-MMAF, CellTitreGlo, read-out: IC50 (nM), secondary internalization assay
# [4] = ALEXA FLUOR 488-conjugated antibody, acid
# [5] = ALEXA FLUOR 488-conjugated antibody, no acid
Molecule,"IC50 [1, 3] [nM]",activity in MDA-MB-231-STn+ cells ([1]; with 2° ADC Fab αMFc-CL-MMAF),"% cells exhibiting 488 fluorescence [2, 4]","% cells exhibiting 488 fluorescence [2, 5]","% fluorescent cells prior to acid treatment and trypan blue exposure ([2]; ALEXA FLUOR 488-conjugated antibody, 37° C. for various times)","% of cells exhibiting fluorescence after acidic buffer and trypan blue ([2]; ALEXA FLUOR 488-conjugated antibody, 37° C., trypan blue quench of surface signal)","% fluorescent cells after trypan blue ([2]; ALEXA FLUOR 488-conjugated antibody, stained at 4° C., trypan blue)",internalization (conclusion) [2],"% cells exhibiting 488 fluorescence ([2]; ALEXA FLUOR 488-conjugated antibody, then 37° C. 15 min, acid) [%]","% cells exhibiting 488 fluorescence ([2]; ALEXA FLUOR 488-conjugated antibody, then 37° C. 15 min, no acid) [%]","% cells exhibiting 488 fluorescence ([2]; ALEXA FLUOR 488-conjugated antibody, then 37° C. 30 min, acid) [%]","% cells exhibiting 488 fluorescence ([2]; ALEXA FLUOR 488-conjugated antibody, then 37° C. 30 min, no acid) [%]","% cells exhibiting 488 fluorescence ([2]; ALEXA FLUOR 488-conjugated antibody, then 37° C. 60 min, acid) [%]","% cells exhibiting 488 fluorescence ([2]; ALEXA FLUOR 488-conjugated antibody, then 37° C. 60 min, no acid) [%]","% of cells exhibiting fluorescence after the staining period ([2]; ALEXA FLUOR 488-conjugated antibody, no acid, range over samples)","IC50 ([1]; unit inferred, b641, read-out: IC50 in the presence of Fab αMFc-CL-MMAF) [nM]"
B1,0.056,demonstrate activity,–,–,–,–,–,–,–,–,–,–,–,–,–,–
B2,0.181,demonstrate activity,approximately 70%,approximately 80%,60-80%,20-45%,less than 20%,successfully internalized,–,–,–,–,–,–,–,–
B3,0.058,demonstrate activity,9.29%,57.9%,–,–,–,can be internalized,22.5,56.6,25.9,53.1,31.5,50.9,50-57%,0.124
